From patent publication US20150023943, “REF Nuclease for Site-Specific REF-Mediated DNA Cleavage” (Wisconsin Alumni Research Foundation, published 2015) come the findings set out here.

The target in data set [1] is T1, φW39 ΔN21 Ref (Bacteriophage phi W39).
T1 chain: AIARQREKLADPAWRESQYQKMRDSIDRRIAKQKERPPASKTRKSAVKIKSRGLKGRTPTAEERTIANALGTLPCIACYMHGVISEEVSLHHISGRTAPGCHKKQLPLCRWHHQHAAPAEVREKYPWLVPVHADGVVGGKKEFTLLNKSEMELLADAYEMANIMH
Nature of the data set: FP; apparent Kd; 119±9; 15 mM Mg acetate, pH 8.5, 25 C. As to conditions: tags: expressed from pET21A with NdeI start Met; label: 5'-6FAM. The protocol: (§1) Fluorescence polarization DNA binding assay—Ref (or a variant) at 0.5-10,000 nM was incubated with 2 nM AJM25 71mer ssDNA or AJM25 annealed with AJG52 71mer to make dsDNA substrate in 25 mM Tris-acetate (pH 8.5), 3 mM potassium glutamate, 15 mM magnesium acetate, and 5% w/v glycerol at room temperature for 15 minutes. Fluorescence anisotropy (FA) was measured at 25° C., using a Tecan Infinite M1000 instrument with 470-nm excitation and 535-nm emission wavelengths for at least three replicates; the average FA values were plotted with one standard deviation of the mean shown as error. Prism software was used to convert FA values to the fraction of DNA bound and apparent dissociation constants were the Ref concentration (or variant) needed for 50% binding saturation.
(§2) Fluorescence polarization assays with labeled DNA substrates (ssDNA and dsDNA) were carried out to determine dissociation constants of each of the N-terminal domain truncations. […] For the P1 ΔN76 Ref protein, this is consistent with EMSA data from the earlier study (Gruenig et al 2011, supra). […] This indicates the presence of a critical sequence domain between residues 47-74.

Data set [2] concerns the target T2, P1 Ref (wild type) (Bacteriophage P1, UniProt P35926 SEQ:1-186).
T2 sequence: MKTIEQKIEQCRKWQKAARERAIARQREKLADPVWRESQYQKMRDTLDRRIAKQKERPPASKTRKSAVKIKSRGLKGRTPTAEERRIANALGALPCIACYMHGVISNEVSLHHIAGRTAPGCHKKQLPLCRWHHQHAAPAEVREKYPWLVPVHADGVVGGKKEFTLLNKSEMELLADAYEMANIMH
Nature of the data set: FP; apparent Kd; 14±1; 25 mM Tris-acetate pH 8.5, 15 mM Mg acetate, 3 mM K glutamate, 25 C. As to conditions: label: 5'-6FAM. The protocol: as §1, §2

For data set [3], the target named is T3, P1 ΔN76 Ref (Bacteriophage P1, UniProt P35926 SEQ:77-186).
T3 chain: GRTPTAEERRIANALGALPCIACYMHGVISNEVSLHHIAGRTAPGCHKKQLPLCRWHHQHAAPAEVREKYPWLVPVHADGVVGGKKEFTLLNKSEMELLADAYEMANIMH
Nature of the data set: FP; no binding detected up to 10,000 nM; consistent with earlier EMSA. As to conditions: label: 5'-6FAM. How it is done:
as §1, §2
A general note: A gel shift assay detects complexes by their altered migration in electrophoresis.

Data set [4] deals with T4, φW39 ΔN47 Ref (Bacteriophage phi W39).
T4 chain: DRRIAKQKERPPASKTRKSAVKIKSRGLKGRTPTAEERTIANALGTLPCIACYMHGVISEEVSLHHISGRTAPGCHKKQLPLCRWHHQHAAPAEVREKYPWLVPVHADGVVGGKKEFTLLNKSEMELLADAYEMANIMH
Nature of the data set: FP; apparent Kd; 113±7; 15 mM Mg acetate, pH 8.5, 25 C. As to conditions: tags: expressed from pET21A with NdeI start Met; label: 5'-6FAM. How it is done:
as §1, §2

Data set [5] concerns the target T5, φW39 ΔN74 Ref (Bacteriophage phi W39).
T5 chain: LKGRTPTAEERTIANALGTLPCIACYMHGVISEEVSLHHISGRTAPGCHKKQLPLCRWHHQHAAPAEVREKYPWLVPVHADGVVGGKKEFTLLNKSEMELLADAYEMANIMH
Put plainly: FP; no binding detected up to 10,000 nM. The following applies: tags: expressed from pET21A with NdeI start Met; label: 5'-6FAM. The protocol: as §1, §2

The target of data set [6] is T4, φW39 ΔN47 Ref. Nature of the data set: FP; apparent Kd; 143±12; 15 mM Mg acetate, pH 8.5, 25 C. The following applies: tags: expressed from pET21A with NdeI start Met; label: 5'-6FAM on AJM25. How it is done:
as §1
(§3) The truncations were also assayed with 71mer dsDNA substrate. The dsDNA substrate was made by annealing the labeled 71mer oligonucleotide (AJM25) with the complementary 71mer oligonucleotide (AJG52). […] Instead, an increase in KD is seen as more of the N-terminus is truncated (FIG. 2B, 2C). Also, there is an apparent cooperativity when binding to dsDNA, and this cooperativity decreases as the N-terminus is truncated (FIG. 2C). This provides evidence that the N-terminal region of Ref is necessary for DNA binding. Specifically, the amino acids between position 47 and 74 are particularly important.

Data set [7] deals with T1, φW39 ΔN21 Ref. Nature of the data set: FP; apparent Kd; 56±3; 15 mM Mg acetate, pH 8.5, 25 C. The following applies: tags: expressed from pET21A with NdeI start Met; label: 5'-6FAM on AJM25. The protocol:
as §1, §3

Data set [8] has as its target T2, P1 Ref (wild type). Nature of the data set: FP; apparent Kd; 14±1; cooperative; 15 mM Mg acetate, pH 8.5, 25 C. The following applies: label: 5'-6FAM on AJM25. The protocol: as §1, §3
Data set [9] addresses T5, φW39 ΔN74 Ref. Put plainly: FP; no observable binding. The following applies: tags: expressed from pET21A with NdeI start Met; label: 5'-6FAM on AJM25. The protocol:
(§4) The truncations were also assayed with a 71mer dsDNA substrate made by annealing the labeled 71mer oligonucleotide (AJM25) with the complementary 71mer oligonucleotide (AJG52). […] As the second motif and part of the third motif were removed in the φW39 ΔN59 and φW39 ΔN66, dsDNA binding was further reduced. As with the ssDNA, φW39 ΔN74 and P1 ΔN76 Ref had no observable dsDNA binding. Overall we provide evidence that the N-terminal region of Ref is necessary for DNA binding, and the putative charge motifs may contribute collectively to that function.
(§5) Ref proteins at 0.5-10,000 nM were incubated with 2 nM AJM25 71mer ssDNA or AJM25 annealed with AJG52 71mer to make a linear 71 bp dsDNA substrate in 25 mM Tris-acetate (pH 8.5), 3 mM potassium glutamate, 15 mM magnesium acetate, and 5% w/v glycerol at room temperature for 15 minutes. Fluorescence anisotropy (FA) was measured at 25° C., using a Tecan Infinite M1000 instrument with 470-nm excitation and 535-nm emission wavelengths for at least three replicates. The average FA values were plotted with one standard deviation of the mean shown as error. Prism software was used to convert FA values to the percent of DNA bound and apparent dissociation constants were determined using one-site, specific binding with Hill coefficient.

Data set [10] concerns the target T3, P1 ΔN76 Ref. Nature of the data set: FP; no observable binding. As to conditions: label: 5'-6FAM on AJM25. The protocol:
as §4, §5

B1: AJM25 71mer ssDNA (ssDNA)
DNA: CAGAAGTAAGTTGGCCGCAGTGTTATCACTCATGGTTATGGCAGCACTGCATAATTCTCTTACTGTCATGC
On to B1, for which the results for the Kd in [1], in data set [2] and in data set [4] were 119 nM, 14.4 nM and 113 nM, respectively. Besides, the binding result in [3] and in [5] was “no binding” each time.

B2: AJM25/AJG52 71 bp dsDNA (dsDNA)
DNA 1: CAGAAGTAAGTTGGCCGCAGTGTTATCACTCATGGTTATGGCAGCACTGCATAATTCTCTTACTGTCATGC
DNA 2: GCATGACAGTAAGAGAATTATGCAGTGCTGCCATAACCATGAGTGATAACACTGCGGCCAACTTACTTCTG
On to B2, for which the Kd came to 142 nM in data set [6], 56.1 nM in [7] and 13.5 nM in data set [8]. For the same molecule, the binding result in data set [9] and in [10] was “no binding” in each case.
